Results published in article PMC4538835.
pIC50, pKd: −log10 of the molar value.

Experiments:
Assay in all cases: fluorescence polarisation
[1] = biological target: MED25 ACID/PTOV domain (residues 391 to 548) (human) (UniProt Q71SY5)
[2] = biological target: TAMRA-labelled ERM_(38–68) W57L (human) (UniProt P41161)
[3] = biological target: TAMRA-labelled ERM_(38–68) F47L/W57L (human) (UniProt P41161)
[4] = biological target: TAMRA-labelled ERM_(38–68) (human) (UniProt P41161)

## ERM_(38–68) peptide (unlabelled by dye) (from UniProt P41161 38-68)
[1]
  pIC50: 5.82

## MED25 ACID/PTOV domain (residues 391 to 548) (from UniProt Q71SY5 391-548) (domain or fragment)
[2]
  pKd: 5.32
[3]
  pKd: 5.08
[4]
  pKd: 6.22
